{
  "source": "paper doi:10.1101/490516",
  "about": "“Molecular mechanism of the Orai channel activation” (bioRxiv, 2018)",
  "proteins": {"B1": {"name": "dOrai-P288L channel (Drosophila melanogaster Orai, amino acids 132-341, C224S, C283T, P288L) (domain or fragment, UniProt Q9U6B8 132-341, looked up)", "chain": "SMSQSGEDLHSPTYLSWRKLQLSRAKLKASSKTSALLSGFAMVAMVEVQLDHDTNVPPGMLIAFAICTTLLVAVHMLALMISTCILPNIETVSNLHSISLVHESPHERLHWYIETAWAFSTLLGLILFLLEIAILCWVKFYDLSPPAAWSATVVLILVMIIFMAFAIHFYRSLVSHKYEVTVSGIRELEMLKEQMEQDHLEHHNNIRNNG", "notes": "Orai, Drosophila melanogaster, Uniprot Q9U6B8, amino acid residues 132-341 with C224S, C283T and P288L; codons optimized for Homo sapiens; pEG-BacMam vector; PreScission site and eGFP at the C-terminus, eGFP cleaved by 3C protease on the Ni-NTA beads; No His tag is described, though Ni-NTA beads were used; it probably left with the eGFP; also called dOrai1-P288L; open Orai channel; source: …"}},
  "target": "the molecule itself",
  "test": "crystal structure; 4.5 Å, molecular replacement with the closed Orai structure 4HKR; protein in NG/NM with POPC:POPE:POPG; sitting drop, 0.05 M NaCl, 0.02 M MgCl2, 0.1 M sodium citrate pH 6.5, 16%-20% PEG400, 17 °C",
  "data": [
    {"protein": "B1", "values": [
      {"measurement": "stoichiometry N", "value": 6}
    ]}
  ]
}
